From the supplement of paper PMC7877785
± gives the uncertainty stated by the source.

Assay: self-splicing fitness, log relative to wild type (ln ratio); higher = more splicing; Tetrahymena group I intron in knt gene, E. coli kanamycin selection, DiMSum; sequences stand for … in CUCUCU…GGAGGGAAAAGUUAUCAGGCAUGCACCUGGUAGCUAGUCUUUAAACCAAUAGAUUGCAUCGGUUUAAAAGGCAAGACCGUCAAAUUGCGGGAAAGGGGUCAACAGCCGUUCAGUACCAAGUCUCAGGGGAAACUUUGAGAUGGCCUUGCAAAGGGUAUGGUAAUAAGCUGACGGACAUGGUCCUAACCACGCAGCCAAGUCCUAAGUCAACAGAUCUUCUGUUGAUAUGGAUGCAGUUCACAGACUAAAUGUCGGUCGGGGAAGAUGUAUUCUUCUCAUAAGAUAUAGUCGGACCUCUCCUUAAUGGGAGCUAGCGGAUGAAGUGAUGCAACACUGGAGCCGCUGGGAACUAAUUUGUAUGCGAAAGUAUAUUGAUUAGUUUUGGAGUACUCGUGGUCG
Summary of the method: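 Six replicate transformations of E. coli BL21(DE3) with a pET-22b(+) library were grown overnight at 37°C or 30°C. The library randomised all eight P1ex-region intron nucleotides, the intron lying in the knt kanamycin-resistance gene, and plates were LB agar with or without 25 μg/mL kanamycin plus 100 μg/mL carbenicillin, 50 μM IPTG and 0.2% rhamnose. Pooled colonies were amplicon-sequenced on an Illumina HiSeq 2500, and fitness is the DiMSum error-weighted combination of wild-type-normalised replicate fold changes, kanamycin versus none.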

Sequence	self-splicing fitness (ln) (30 °C)	self-splicing fitness (ln) (37 °C)
CCAAAGCAAUAUUACGGACU	-2.27 ± 0.13	-2.84 ± 0.22
CCAAAGCAAUAUUACGGAGA	-4.23 ± 0.42	-1.92 ± 0.23
CCAAAGCAAUAUUACGGAUC	-3.45 ± 0.23	-2.47 ± 0.39
CCAAAGCAAUAUUACGGCAA	-3.15 ± 0.27	-2.73 ± 0.25
CCAAAGCAAUAUUACGGCCU	-3.59 ± 0.18	-3.33 ± 0.37
CCAAAGCAAUAUUACGGCGA	-3.26 ± 0.21	-3.01 ± 0.19
CCAAAGCAAUAUUACGGGCC	-2.51 ± 0.46	-2.23 ± 0.42
CCAAAGCAAUAUUACGGGCU	-2.45 ± 0.13	-3.3 ± 0.23
CCAAAGCAAUAUUACGGUAA	-3.35 ± 0.29	-2.91 ± 0.23
CCAAAGCAAUAUUACGGUCA	-3.54 ± 0.35	-1.78 ± 0.25
CCAAAGCAAUAUUACGUCGA	-3.66 ± 0.15	-2.92 ± 0.18
CCAAAGCAAUAUUACGUGGC	-1.62 ± 0.098	-2.29 ± 0.21
CCAAAGCAAUAUUACGUUCC	-3.37 ± 0.24	-2.93 ± 0.32
CCACAGCAAUAUUACGAACC	-3.86 ± 0.32	-2.46 ± 0.35
CCACAGCAAUAUUACGACAU	-3.702 ± 0.019	-2.84 ± 0.037
CCACAGCAAUAUUACGACCA	-3.99 ± 0.36	-1.28 ± 0.2
CCACAGCAAUAUUACGACCU	-3.94 ± 0.3	-2.82 ± 0.18
CCACAGCAAUAUUACGACGU	-3.18 ± 0.18	-2.52 ± 0.15
CCACAGCAAUAUUACGAGCC	-3.22 ± 0.42	-2.3 ± 0.31
CCACAGCAAUAUUACGAGGC	-3.21 ± 0.14	-2.37 ± 0.21
CCACAGCAAUAUUACGAGUA	-3.68 ± 0.2	-2.31 ± 0.19

Sequence	self-splicing fitness (ln) (30 °C)	self-splicing fitness (ln) (37 °C)
CCACAGCAAUAUUACGCCCA	-2.81 ± 0.14	-2.36 ± 0.16
CCACAGCAAUAUUACGCGCG	-1.02 ± 0.042	-0.161 ± 0.056
CCACAGCAAUAUUACGCUGU	-4.34 ± 0.18	-3.31 ± 0.27
CCACAGCAAUAUUACGGAAU	-3.23 ± 0.17	-2.21 ± 0.18
CCACAGCAAUAUUACGGACC	-4.45 ± 0.31	-1.54 ± 0.22
CCACAGCAAUAUUACGGAGC	-3.58 ± 0.14	-2.99 ± 0.19
CCACAGCAAUAUUACGGGCA	-3.53 ± 0.15	-2.92 ± 0.15
CCACAGCAAUAUUACGGGCG	-0.605 ± 0.065	0.193 ± 0.087
CCACAGCAAUAUUACGGUUA	-3.14 ± 0.15	-2.7 ± 0.16
CCACAGCAAUAUUACGUAGU	-3.22 ± 0.14	-2.94 ± 0.19
CCACAGCAAUAUUACGUCAG	-0.817 ± 0.057	-0.131 ± 0.071
CCAGAGCAAUAUUACGAAAA	-2.94 ± 0.32	-1.54 ± 0.35
CCAGAGCAAUAUUACGACGA	-2.94 ± 0.25	-2.34 ± 0.3
CCAGAGCAAUAUUACGAGUC	-2 ± 0.19	-1.69 ± 0.28
CCAGAGCAAUAUUACGAUAU	-2.51 ± 0.23	-3.19 ± 0.37
CCAGAGCAAUAUUACGAUGG	-4.18 ± 0.34	-2.04 ± 0.27
CCAGAGCAAUAUUACGAUUC	-4.06 ± 0.22	-2.67 ± 0.21
CCAGAGCAAUAUUACGCAUA	-3.74 ± 0.23	-2.48 ± 0.24
CCAGAGCAAUAUUACGCCGC		-0.773 ± 0.45
CCAGAGCAAUAUUACGCGCU	-2.97 ± 0.24	-1.89 ± 0.34
CCAGAGCAAUAUUACGCUUU	-3.36 ± 0.27	-1.71 ± 0.17
